According to publication PMC4364678, “Biosynthesis of the Diterpenoid Lycosantalonol via Nerylneryl Diphosphate in Solanum lycopersicum” (PLoS ONE, 2015):

Assays:
purified protein [1] = substrate: C=C(C)CCO[P@@](=O)(O)OP(=O)(O)O; assay: purified protein; conditions: 5-80 μM 14C-IPP at 150 μM zzFPP; labelled compound
purified protein [2] = substrate: CC(C)=CCC/C(C)=C\CC/C(C)=C\COP(=O)(O)OP(=O)(O)O; assay: purified protein; format: biochemical, Solanum lycopersicum; conditions: 10-80 μM zzFPP at 50 μM 14C-IPP

B1: CPT2 (Solanum lycopersicum) (protein)
chain: MSDRGLSKISCSLSLQTEKLRYDNDDNDDLELHEELIPKHIALIMDGNRRWAKAKGLEVYEGHKLIIPKLKEICDISSKLGIQVITAFAFSTENWKRSKEEVDFLMQLFEEFFNEFLRFGVRVSVIGCKSNLPMTLQKCIALTEETTKGNKGLHLVIALNYGGYYDILQATKSIVNKAMNGLLDVEDINKNLFEQELESKCPNPDLLIRTGGEQRVSNFLLWQLAYTEFYFTNTLFPDFGEKDLKKAILNFQQRHRRFGGHTY
notes: N-terminal putative transit peptide (51 residues, 153 nt) deleted; vector pEXP5-CT/TOPO; E. coli BL21 (DE3)
Km (purified protein [1]): 3.8 ± 0.3 µM
kcat (purified protein [1]): 0.0026 s⁻¹
kcat/Km (purified protein [1]): 680 M⁻¹ s⁻¹
Km (purified protein [2]): 22.9 ± 1.1 µM
kcat (purified protein [2]): 0.0026 ± 0.0001 s⁻¹
kcat/Km (purified protein [2]): 110 ± 10 M⁻¹ s⁻¹
